Measurements from the DeepSol protein solubility set.

Test: soluble on expression in E. coli; label from the status in PepcDB or PDB records
For “MNTVADVMAGNDGEYCFHARTGKYGVYLKQDWRNEYNVGDIAVYEDSKPGTLNDFLIAPDEGDLKPDVVKRFEEMVAQAQQSAGAAAGNAQQTAQDVAAAATARDDAQRFAEKARQDATVTAEDRKATAEDVTSTGANAAAAGQSAQDAAGYARAAEQAKNDIDAALTGTLKTANHLSETAAAGEKAQQKSRDNLGLKSAATMEAQSDIYDRTKGRLAIPGAFGFGCAFLPEDVIRFDTKSDFLAWVRNALPGEYSVAGPYGIIIPDTRFEGVLSIRWTDARPETTEPRYRAKSLTFYGINGPIYHTRYCYWPISRLTGWVKINITTEDIIYRIVASSVRNRWGDPDIGGLIIAAYQGEADGDKVIRLVRGQSYRGSRLGPVGISVPGTPTGTYIVSPQFFITGCSEHSLPGSYCALSGVPDAHVSGAMPGLFIRTSRGMHRGN”, the “soluble on expression in E. coli” value was “not soluble”.
In the case of “MSLSVADIAYVVFNHVDLLEAERFYTDFGLTVAYRNEFEVAFRPAMERSYCYVARKADKPGLVSIGLSAASQEDLVVAAQFPEASPIQAIERPGGGQVVRLTSPDGVNFELVHGIDVYPARPVRDALSINTGIVKTRHGQWQRPELEPASILRLGHVALLTGDFKTNAQWLRSRFGFMPSDVLFADAPENQVGAFFHCTGGNPWTDHHTLALFPSDGSRMHHCSFEIQDLDAQFLGNKWLASRGWKPGWGVGRHILGSQIFDYWFDPAGNLVEHFTDGDLIQAGAAPGMHPLDDDALAMWGPPLTASKFVAMAAREGHHHHHH”, the “soluble on expression in E. coli” value is reported as “soluble”.
For “MSGAEQQQIVPANNGDENWKAGLNLPAKDRRFKTADVTDTKGVEFEDFCLGRDLLMGIFEKGWEKPSPIQEASIGVALTGQDILARAKNGTGKTGAYCIPVIEKIQPALKAIQAMVIVPTRELALQTSQICVELSKHIQLKVMVTTGGTDLRDDIMRLNGTVHLVIATPGRILDLMEKGVAKMEHCKTLVLDEADKLLSQDFQGILDRLINFLPKERQVMLYSATFPNTVTSFMQKHMHKPYEINLMEELTLLGVTQYYAFVQEKQKVHCLNTLFRKLQINQSIIFCNSTQRVELLAKKITEIGYSCYYIHSKMAQNHRNRVFHDFRQGNCRNLVCSDLLTRGIDIQAVNVVINFDFPRNAETYLHRIGRSGRFGHLGVAINLITYEDRHTLRRIEQELRTRIEPIPKTVDPKLYVADQQLVDAADETTA”, the “soluble on expression in E. coli” value was “not soluble”.
In the case of “MSLKIILVEDEENLARLLKEAIGDNFHSFTVAKDGIEGIEFFKKIRPDIVITDIMMPNLDGLKMAKELKRINPNIPIIILSAFSEKEKLLSAIDVGITKYFIKPFDAEELLEYISSITSRIENKILKLSDCYIFNKNTSSLYKNEKYIALSKNDIKFLYLLLDSKNRTVDDISIKEALWGGDASDERLRTFIKRFREKTSKMLIKNIKGFGYQLLLNEGHHHHHH”, the “soluble on expression in E. coli” value is reported as “not soluble”.
For “MGSDKIHHHHHHMENALLVGLSRQVVLERQMDVVANNLANLNTNGFKAERSVFQEFLNTGAHEDNFARPDRRVSFVQDRATYHDLSTGALQETKNPLDVAIDGKGFLVVQTPQGERFTRDGSLTINAQGQLVNGSGFPVLGTGGPIVIQPTDKELSISPDGRVSVVEGTSIIDSLRGKLRVVTFDRPQSLIKQGGNLFAATSDQGTPDTKSMVRQGYVEKSNVNSVLEMTRMIDVTRTYTQISAMLQQESELRKTAIEKLAEVPA”, the “soluble on expression in E. coli” value was “not soluble”.
For “MDPAEVEFLAEKEMVKIIPNFSLDKIYLIGGDLGPFNPGLPVEVPVWLALNLKQRQKCRIVPPEWMDTDKLEDIREQERKLDTFTPIPNPYYMELTKLLLNHAADNIPKADEIRTLVKDIWDTRMAKLRLSADSFISQQEAHAQLDNLTLMEINTTRSFLLDSLNYMYKLRSNLQPGRSKDY”, the “soluble on expression in E. coli” value was “not soluble”.
With “MRRRWYNNGGFQTLRMLEESSSEVTSSSALGLPPAMVMSPESLASPEYGGLELWGYDDGITYSMAQSLGTCTMEQQQPQPQQQPQQTQPLPSMPLPMPPTTPKSENESMSSGREELSPASSVNGCSTDGEARRQKKGPAPRQQEELCLVCGDRASGYHYNALTCEGCKGFFRRSVTKNAVYICKFGHACEMDMYMRRKCQECRLKKCLAVGMRPECVVPENQCAMKRKEKKAQREKDKLPVSTTTVDDHMPPIMQCDPPPPEAARIHEVVPRFLNEKLMEQNRLKNVPPLTANQKSLIARLVWYQEGYEQPSEEDLKRVTQTWQSDEDDEDSDMPFRQITEMTILTVQLIVEFAKGLPGFAKISQSDQITLLKACSSEVMMLRVARRYDAATDSVLFANNQAYTRDNYRKAGMAYVIEDLLHFCRCMYSMMMDNVHYALLTAIVIFSDRPGLEQPLLVEEIQRYYLNTLRVYILNQNSASPRCAVIFGKILGILTEIRTLGMQNSNMCISLKLKNRKLPPFLEEIWDVADVATTATPVAAEAPAPLAPAPPARPPATV” the “soluble on expression in E. coli” value was “soluble”.
With “MTGEGYKQAIVVRRDLGMGRGKAAAQAAHASCEAVFLILESGRPEWRRWLEMWRLQGQAKVVLRVESLAELQEVYSKAVEEGLPASFVRDAGKTQLEPGTPTAAAVGPAPSRLVDRITGGLKLF” the “soluble on expression in E. coli” value was “not soluble”.
In the case of “GSGKNLIMIQVEALQGFVVNKSINGKEITPNLNKWINKSLYFDNYFYQVAQGNTSDAEFMSLNSLYPAQSGAAYYTYAGNTFNSIPKDLGDKGYYTAALHGYNEGFWNRNVMYKSEKFDDFYGQTSYKNDEVVGMGLSDESFLNQSLAKMKTFKQPYFSFLITLSSHYPFNDTAGYEKYTMNKLDVGEYKDTLLGNYFEGIHYTDEQLGKFLDKLDKEGLTKNSIIVLYGDHFAIPKENINQLYSFEGIKDPTDLTWYEYQKVPMFIHFPDDEHKGVNHTYSGQMDIYPTIANLYNISNNYMFGEDILNVKDGDSTNVTFRNGSFTDGK”, the “soluble on expression in E. coli” value is reported as “not soluble”.
In the case of “MAHHHHHHMESISRTYENIKNDKNNLSNAENENNGNFKAPPNGTVCCPEDLKMYSTIQLNQEIEISKNPFPLHEINKKNDIPLCAQEFSDLTDPLYIKKICLEKVPEWNHFTEDNLRVKQILSGLTNQLFEVGLKEETANNYNSIRTRVLFRIYGKHVDELYNTISEFEVYKTMSKYKIAPQLLNTFNGGRIEEWLYGDPLRIDDLKNPTILIGIANVLGKFHTLSRKRHLPEHWDRTPCIFKMMEKWKNQLFKYKNIEKYNCDIHKYIKESDKFIKFMKVYSKSDNLANTIVFCHNDLQENNIINTNKCLRLIDFEYSGFNFLATDIANFFIETSIDYSVSSYPFFEIDKKKYISYENRKLFITAYLSNYLDKSLVVPTPKLIDEILEAVEVQALGAHLLWGFWSIIRGYQTKSYNEFDFFLYAEQRLKMYDDQKEYLISNNIIKGYD”, the “soluble on expression in E. coli” value is reported as “soluble”.
In the case of “EHEHNYHPNAVAAGLRAGRTRSIGLVIPDLENTSYTRIANYLERQARQRGYQLLIACSEDQPDNEMRCIEHLLQRQVDAIIVSTSLPPEHPFYQRWANDPFPIVALDRALDREHFTSVVGADQDDAEMLAEELRKFPAETVLYLGALPELSVSFLREQGFRTAWKDDPREVHFLYANSYEREAAAQLFEKWLETHPMPQALFTTSFALLQGVMDVTLRRDGKLPSDLAIATFGDNELLDFLQCPVLAVAQRHRDVAERVLEIVLASLDEPRKPKPGLTRIKRNLYRRGVLSRS”, the “soluble on expression in E. coli” value is reported as “soluble”.
In the case of “MHQQLMVMIDRKRRRSFIMMRSMFSGVSGLQAHQTKMDVIGNNVANVNTVGFKSSRVTFQEVFSQTLKGASSPDPTTGRGGTNPMQVGLGLGVATIDTLMTRGSVQRTDNPTDLAIEGDGFFIVKGGSSDTFKFTRAGNFGIDRLGNLVTGSGLNVYGWQSYTKLPDGTYKFDTESQIEPINLYSDDVNKNKRMIAAKATTYAIFEGNLDASYSIYSSAASGTSSNNRFTMPVTVYDSLGNSYKINISFWKTDVTGGVTTWTWQVDSGNGVTASGATGTILFDDQGQVIESSAVTPSITIIPDSSVGSQNINVKLDFSRLTMYAADSSAKATNVDGYPAGSLVTFSIGSDGMIMGIYSNGQQQPLGLIALASFDNPAGLEKVGENMYIPTSNSGEFKKGVKAGTEGVGTLSPGTLEMSNVDLSKEFTEMIITQRGFQANSRIITTSDEMLQELVNLKR”, the “soluble on expression in E. coli” value is reported as “not soluble”.
In the case of “MDHGRRRLHSGSTPRGGERPAKRERISVEEQQSQEIRNLKRKLEEARQREDKYIKNEQLHHTAMRSKQQRIERMEKSMESTNRKMYATQCRLNDMENIYDDLEMESKIMADFIDHYYDSRNITEEDRDELQDKLDEEAANYRDLEDRIKEVRHRDRYMKTVETERKRTTFYRKKMLELAEQLQFEQQEVTGETPLWKLCEICAHQFSHSDEYVPRVLVCGHTLCTSCIEKLDVGDGIRCPFCRTWTNMKRIEALPKNFQILQM”, the “soluble on expression in E. coli” value is reported as “not soluble”.
In the case of “MDKFRVYGQSRLSGSVNISGAKNAALPILFAAILATEPVKLTNVPELKDIETTLKILRQLGVVVDRDATGAVLLDASNINHFTAPYELVKTMRASIWALAPLVARFHQGQVSLPGGCSIGARPVDLHISGLEKLGADIVLEEGYVKAQVSDRLVGTRIVIEKVSVGATLSIMMAATLAKGTTVIENAAREPEIVDTADFLNKMGAKITGAGSAHITIEGVERLTGCEHSVVPDRIETGTFLIAAAISGGCVVCQNTKADTLDAVIDKLREAGAQVDVTENSITLDMLGNRPKAVNIRTAPHPGFPTDMQAQFTLLNMVAEGTSIITETIFENRFMHIPELIRMGGKAEIEGNTAVCHGVEQLSGTEVIATDLRASISLVLAGCIATGETIVDRIYHIDRGYEHIEDKLRGLGAKIERFSGSDEA”, the “soluble on expression in E. coli” value is reported as “soluble”.
With “MENSDVINFSCLEKELHSALQADRKYQRENDAKFRALNQKVASYEEFRDIVLASHLKPLDRNDISGSPRKQPWNPVACRTNYVCASSEQVQPQLSEVQPRSASEFIRDWRRFAGCSFEKYSLLVSLGGEALQKIFSTEIGLGLLGEFLLILSQCLKSGDEDRVTGVLDGLSKTGRFSINLSLLSQAEQEACEELFNKLKVAAGECHPYKDNSNTSVVCEAGLTHMEDNKTDITTTLKELAGKYGTEK” the “soluble on expression in E. coli” value was “not soluble”.
In the case of “MSLLLTNHIGYERLGPKKAIIQTEQPHLSSYTAQLICATSEQTVATFAVEEQGKVANWHQGYFYLIDFSSFTDSGDYFLQVEDSRSSTFTVGEHILLNQTLSDVIHYFKSQRCGGVFDQQDRQVPVLNANQTADVHGGWYDASGDVSKYLSHLSYANYLNPQQTPMVVWNILKGLSLLEGSEDIAAFTRTRLIEEALFGADFLVRMQNEKGFFYMTVFDKWSKDTAQREICAYETQLGHKFDDYQAGFRQGGGVAIAALAAASRLGVHGEYDQQKYRNAAENGYWHLKEHNTQYLNDGEENIIDEYCALLASVELFKATKETRYLEESRLWAQRLVARQMSDEQIQHFWSANQDGSRPYFHAAEAGLPTIALCEYLAIEDDSVQTESVKCIVNRACEFEIKISNKVTNPFGYPRQYVKGVNESKRDAFFVAHNNESGYWWQGENARLGSLATMAYLAQPHIASQEIQQQLSVFAQDALNWIVGLNPYDMCMLDGHGRNNPDYLPQYGFFNAKGGVCNGITGGFEDEEDIAFNPPAQKDDMLQNWRWGEQWIPHGAWYLLAIMSQAQHISQLATSKNIKEGHHHHHH”, the “soluble on expression in E. coli” value is reported as “soluble”.
For “MSLNNNDLVAKLWKLCDNLRDGGVSYQNYVNELASLLFLKMCKETGQEAEYLPEGYRWDDLKSRIGQEQLQFYRKMLVHLGEDDKKLVQAVFHNVSTTITEPKQITALVSNMDSLDWYNGAHGKSRDDFGDMYEGLLQKNANETKSGAGQYFTPRPLIKTIIHLLKPQPREVVQDPAAGTAGFLIEADRYVKSQTNDLDDLDGDTQDFQIHRAFIGLELVPGTRRLALMNCLLHDIEGNLDHGGAIRLGNTLGSDGENLPKAHIVATNPPFGSAAGTNITRTFVHPTSNKQLCFMQHIIETLHPGGRAAVVVPDNVLFEGGKGTDIRRDLMDKCHLHTILRLPTGIFYAQGVKTNVLFFTKGTVANPNQDKNCTDDVWVYDLRTNMPSFGKRTPFTDEHLQPFERVYGEDPHGLSPRTEGEWSFNAEETEVADSEENKNTDQHLATSRWRKFSREWIRTAKSDSLDISWLKDKDSIDADSLPEPDVLAAEAMGELVQALSELDALMRELGASDEADLQRQLLEEAFGGVKEEGGSHHHHHH”, the “soluble on expression in E. coli” value was “soluble”.
